Source: paper PMC6420074 (Nature metabolism, 2019)

Key:
[1] = target: T1, extracellular domain of Tfr2 (Tfr2-ECD), recombinant His-MBP-c3-Tfr2-ECD (murine, UniProt Q9JKX3 103-798); assay: SPR
T1 sequence: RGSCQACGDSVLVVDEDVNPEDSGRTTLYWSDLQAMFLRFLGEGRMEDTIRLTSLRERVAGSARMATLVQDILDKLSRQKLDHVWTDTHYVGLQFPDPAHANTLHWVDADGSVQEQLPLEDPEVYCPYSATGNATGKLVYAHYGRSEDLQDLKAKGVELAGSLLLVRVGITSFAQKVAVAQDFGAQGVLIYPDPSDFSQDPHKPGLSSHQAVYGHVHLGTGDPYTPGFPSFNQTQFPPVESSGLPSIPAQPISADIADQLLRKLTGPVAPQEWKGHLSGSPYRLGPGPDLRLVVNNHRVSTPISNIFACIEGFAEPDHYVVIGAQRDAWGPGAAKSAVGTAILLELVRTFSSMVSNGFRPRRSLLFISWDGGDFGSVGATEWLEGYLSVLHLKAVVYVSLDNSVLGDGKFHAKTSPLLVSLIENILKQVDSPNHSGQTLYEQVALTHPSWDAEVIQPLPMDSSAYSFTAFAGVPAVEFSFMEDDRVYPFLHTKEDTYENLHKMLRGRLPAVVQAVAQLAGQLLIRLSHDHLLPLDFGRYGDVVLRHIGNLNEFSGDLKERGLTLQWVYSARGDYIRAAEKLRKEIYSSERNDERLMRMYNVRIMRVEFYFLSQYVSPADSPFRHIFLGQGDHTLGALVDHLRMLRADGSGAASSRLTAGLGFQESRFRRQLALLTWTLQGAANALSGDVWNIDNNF

[2] = target: T1, extracellular domain of Tfr2 …; assay: SPR; remark: listed apart in the source

Binder | Kd [1] [µM] | fold binding level against holo-Tf [2] [fold]
BMP-4 (ligand) SPKHHSQRARKKNKNCRRHSLYVDFSDVGWNDWIVAPPGYQAFYCHGDCPFPLADHLNSTNHAIVQTLVNSVNSSIPKACCVPTELSAISMLYLDEYDKVVLKNYQEMVVEGCGCR | 0.409 ± 0.039 | 
BMP-2 (ligand) QAKHKQRKRLKSSCKRHPLYVDFSDVGWNDWIVAPPGYHAFYCHGECPFPLADHLNSTNHAIVQTLVNSVNSKIPKACCVPTELSAISMLYLDENEKVVLKNYQDMVVEGCGCR | 0.488 ± 0.037 | > 10
